Some targets named below: HLA-B*57:01; HLA-B*53:01; HLA-A*02:01; HLA-B*44:03; HLA-B*07:02; HLA-B*35:01.
Holding throughout (assay): IEDB peptide-MHC binding, purified MHC/competitive/radioactivity; ≥ and ≤ were set here for values at or beyond the usual limits of such assays
Holding throughout (conditions): source organism: Bordetella pertussis

Consider LAAQVTQRG, for which, in the experiment with HLA-B*57:01, the IC50 amounted to 40.2 µM.

For the sequence YIWGLYPTY, the 50% inhibitory concentration (IC50) in the experiment with HLA-B*53:01 was 48.1 µM.

As for AVAAPAVGA, the IC50 with HLA-A*02:01 was not below 78.1 µM.

For ATYIADSGF, the IC50 with HLA-B*57:01 came to 4.17 µM.

As for AMTHLSPAL, in the experiment with HLA-A*02:01, the concentration for half-maximal inhibition (IC50) worked out at 0.162 µM.

In the case of KTNMVVTSV, the IC50 with HLA-B*57:01 is 4.37 µM.

With AMQGAVVHL, the IC50 was found to be 37.1 µM with HLA-B*44:03 and 2.65 µM with HLA-A*02:01.

Consider ALILAASPV, for which the IC50 with HLA-A*02:01 amounted to 26.3 µM.

Consider SLADISLGA, for which the concentration for half-maximal inhibition (IC50) with HLA-A*02:01 was 0.0911 µM.

Regarding LEAGRRFTH, the half-inhibitory concentration (IC50) with HLA-B*44:03 is 44.2 µM.

On to AELQTYLRQ, for which, in the experiment with HLA-B*44:03, the 50% inhibitory concentration (IC50) is 1.83 µM.

For LPKPVTVKL, the half-inhibitory concentration (IC50) with HLA-B*07:02 turned out to be 2.66 µM.

As for LMGPLQVNA, the half-inhibitory concentration (IC50) with HLA-A*02:01 is 0.629 µM.

As for LPEPVKLTL, the IC50 with HLA-B*35:01 came to 69.9 µM.

In the case of AEKVTTPAV, the 50% inhibitory concentration (IC50) in the experiment with HLA-B*44:03 came out at 39.3 µM.

Values taken from the Immune Epitope Database (IEDB).
